The assay concerns the target T1, His6-tagged human PSF (polypyrimidine tract binding protein associated splicing factor) (human, UniProt P23246 1-707).
T1 sequence (looked up): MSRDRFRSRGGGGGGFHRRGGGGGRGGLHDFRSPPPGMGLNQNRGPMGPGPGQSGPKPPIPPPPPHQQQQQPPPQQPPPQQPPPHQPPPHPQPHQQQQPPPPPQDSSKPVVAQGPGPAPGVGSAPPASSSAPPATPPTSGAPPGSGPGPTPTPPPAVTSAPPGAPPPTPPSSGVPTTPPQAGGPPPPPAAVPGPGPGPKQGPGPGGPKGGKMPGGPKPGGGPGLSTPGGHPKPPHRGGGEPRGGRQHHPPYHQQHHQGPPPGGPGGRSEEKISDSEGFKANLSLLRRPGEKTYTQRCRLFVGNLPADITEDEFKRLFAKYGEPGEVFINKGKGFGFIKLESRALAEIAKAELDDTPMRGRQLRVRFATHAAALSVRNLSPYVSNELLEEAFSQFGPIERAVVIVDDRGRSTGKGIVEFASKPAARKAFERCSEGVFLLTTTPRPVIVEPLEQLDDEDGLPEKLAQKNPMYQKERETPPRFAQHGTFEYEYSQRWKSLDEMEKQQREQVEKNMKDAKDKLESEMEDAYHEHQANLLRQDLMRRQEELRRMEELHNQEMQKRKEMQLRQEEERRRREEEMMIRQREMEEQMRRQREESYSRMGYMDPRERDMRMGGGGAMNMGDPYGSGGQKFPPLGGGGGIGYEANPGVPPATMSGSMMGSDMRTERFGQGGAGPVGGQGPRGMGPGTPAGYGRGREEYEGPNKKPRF
Briefly: pull-down.

B1: human RAD51 (natural protein, UniProt Q06609 1-339, looked up)
chain: MAMQMQLEANADTSVEEESFGPQPISRLEQCGINANDVKKLEEAGFHTVEAVAYAPKKELINIKGISEAKADKILAEAAKLVPMGFTTATEFHQRRSEIIQITTGSKELDKLLQGGIETGSITEMFGEFRTGKTQICHTLAVTCQLPIDRGGGEGKAMYIDTEGTFRPERLLAVAERYGLSGSDVLDNVAYARAFNTDHQTQLLYQASAMMVESRYALLIVDSATALYRTDYSGRGELSARQMHLARFLRMLLRLADEFGVAVVITNQVVAQVDGAAMFAADPKKPIGGNIIAHASTTRLYLRKGRGETRICKIYDSPCLPEAEAMFAINADGVGDAKD
For B1, the binding result is “binds”.

B2: human DMC1 (natural protein, UniProt Q14565 1-340, looked up)
chain: MKEDQVVAEEPGFQDEEESLFQDIDLLQKHGINVADIKKLKSVGICTIKGIQMTTRRALCNVKGLSEAKVDKIKEAANKLIEPGFLTAFEYSEKRKMVFHITTGSQEFDKLLGGGIESMAITEAFGEFRTGKTQLSHTLCVTAQLPGAGGYPGGKIIFIDTENTFRPDRLRDIADRFNVDHDAVLDNVLYARAYTSEHQMELLDYVAAKFHEEAGIFKLLIIDSIMALFRVDFSGRGELAERQQKLAQMLSRLQKISEEYNVAVFVTNQMTADPGATMTFQADPKKPIGGHILAHASTTRISLRKGRGELRIAKIYDSPEMPENEATFAITAGGIGDAKE
Turning to B2, the binding result is listed as “binds”.
